# Molecular target: HLA-A*02:01 (Homo sapiens, UniProt P04439, D140Y/D185E/D98H/E176V/E277Q/G131W/G231S/I119V/I121R/I166T/I218V/L300P/L318F/N151K/N90K/P208A/P217A/Q86G/Q94H/R138H/R169H/T345S)
# Assay: MHC binding assay: UV-ligand exchange with β2m ELISA
# Conditions: binding of HLA-class I restricted peptides to HLA-A*02:01
# From the text: Candidate peptides for T cell based therapies according to the present invention were further tested for their MHC binding capacity (affinity). The individual peptide-MHC complexes were produced by UV-ligand exchange, where a UV-sensitive peptide is cleaved upon UV-irradiation, and exchanged with the peptide of interest as analyzed. Only peptide candidates that can effectively bind and stabilize the peptide-receptive MHC molecules prevent dissociation of the MHC complexes. To determine the yield of the exchange reaction, an ELISA was performed based on the detection of the light chain (β2m) of stabilized MHC complexes. The assay was performed as generally described in Rodenko et al. (Rodenko et al., 2006).
# 96 well MAXISorp plates (NUNC) were coated over night with 2 ug/ml streptavidin in PBS at room temperature, washed 4× and blocked for 1 h at 37° C. in 2% BSA containing blocking buffer. Refolded HLA-A*02:01/MLA-001 monomers served as standards, covering the range of 15-500 ng/ml. Peptide-MHC monomers of the UV-exchange reaction were diluted 100-fold in blocking buffer. Samples were incubated for 1 h at 37° C., washed four times, incubated with 2 ug/ml HRP conjugated anti-β2m for 1 h at 37° C., washed again and detected with TMB solution that is stopped with […]. Absorption was measured at 450 nm. Candidate peptides that show a high exchange yield (preferably higher than 50%, most preferred higher than 75%) are generally preferred for a generation and production of antibodies or fragments thereof, and/or T cell receptors or fragments thereof, as they show sufficient avidity to the MHC molecules and prevent dissociation of the MHC complexes.
row,Substance,"Peptide exchange (MHC class I binding score, peptide exchange yield)"
1,2 (PVCPPGGIQEV; listed as Homo sapiens) [compound 2],+++ (>50 = +++)
2,4 (ILDINDNPPV; listed as Homo sapiens) [compound 4],+++ (>50 = +++)
3,5 (VCPPGGIQEV; listed as Homo sapiens) [compound 5],+++ (>50 = +++)
4,6 (ALYDAELSQM; listed as Homo sapiens) [compound 6],+++ (>50 = +++)
5,7 (ALEEANADLEV; listed as Homo sapiens) [compound 7],+++ (>50 = +++)
6,9 (STASAITPSV; listed as Homo sapiens) [compound 9],++ (>20% = ++)
7,14 (RIMEGIPTV; listed as Homo sapiens) [compound 14],++++ (>75% = ++++)
8,15 (SMLNNIINL; listed as Homo sapiens) [compound 15],+++ (>50 = +++)
9,21 (FLHEPFSSV; listed as Homo sapiens) [compound 21],++++ (>75% = ++++)
10,22 (KLPEPCPSTV; listed as Homo sapiens) [compound 22],+++ (>50 = +++)
11,23 (SLPESGLLSV; listed as Homo sapiens) [compound 23],+++ (>50 = +++)
12,24 (LLIAINPQV; listed as Homo sapiens) [compound 24],++++ (>75% = ++++)
13,25 (SLCPPGGIQEV; listed as Homo sapiens) [compound 25],++++ (>75% = ++++)
14,27 (YLAEPQWAV; listed as Homo sapiens) [compound 27],++++ (>75% = ++++)
15,31 (HLATVKLLV; listed as Homo sapiens) [compound 31],++++ (>75% = ++++)
16,32 (IQDAEGAIHEV; listed as Homo sapiens) [compound 32],++++ (>75% = ++++)
17,33 (AIYEGVGWNV; listed as Homo sapiens) [compound 33],++++ (>75% = ++++)
18,34 (ALDTFSVQV; listed as Homo sapiens) [compound 34],++++ (>75% = ++++)
19,35 (ALVGDVILTV; listed as Homo sapiens) [compound 35],++++ (>75% = ++++)
20,36 (GLWSSIFSL; listed as Homo sapiens) [compound 36],++++ (>75% = ++++)
21,37 (ILLEDVFQL; listed as Homo sapiens) [compound 37],++++ (>75% = ++++)
22,38 (KLLPGVQYV; listed as Homo sapiens) [compound 38],++++ (>75% = ++++)
23,39 (LLPEDDTRDNV; listed as Homo sapiens) [compound 39],+++ (>50 = +++)
24,40 (LLTPLNLQI; listed as Homo sapiens) [compound 40],+++ (>50 = +++)
25,41 (RLNGEGVGQVNISV; listed as Homo sapiens) [compound 41],++ (>20% = ++)
26,42 (ALYTSGHLL; listed as Homo sapiens) [compound 42],++++ (>75% = ++++)
27,43 (AVLGGKLYV; listed as Homo sapiens) [compound 43],++++ (>75% = ++++)
28,44 (GLGDDSFPI; listed as Homo sapiens) [compound 44],++++ (>75% = ++++)
29,45 (GLIEWLENTV; listed as Homo sapiens) [compound 45],++++ (>75% = ++++)
30,46 (GLISSIEAQL; listed as Homo sapiens) [compound 46],++++ (>75% = ++++)

# Further lines, results first:
row,"Peptide exchange (MHC class I binding score, peptide exchange yield)",Substance
1,+++ (>50 = +++),47 (QLLEGELETL; listed as Homo sapiens) [compound 47]
2,+++ (>50 = +++),48 (YLLDYPNNL; listed as Homo sapiens) [compound 48]
3,++++ (>75% = ++++),49 (YLWEAHTNI; listed as Homo sapiens) [compound 49]
4,++++ (>75% = ++++),50 (ALSNVVHKV; listed as Homo sapiens) [compound 50]
5,++++ (>75% = ++++),51 (FLIPSIIFA; listed as Homo sapiens) [compound 51]
6,+++ (>50 = +++),52 (LLFTGLVSGV; listed as Homo sapiens) [compound 52]
7,++++ (>75% = ++++),53 (RLVEVGGDVQL; listed as Homo sapiens) [compound 53]
8,+++ (>50 = +++),54 (RLSGEGVGPV; listed as Homo sapiens) [compound 54]
9,+++ (>50 = +++),55 (VLNVGVAEV; listed as Homo sapiens) [compound 55]
10,++++ (>75% = ++++),56 (FLQLETEQV; listed as Homo sapiens) [compound 56]
11,++++ (>75% = ++++),57 (AILGFALSEA; listed as Homo sapiens) [compound 57]
12,+++ (>50 = +++),58 (SLSDIQPCL; listed as Homo sapiens) [compound 58]
13,+++ (>50 = +++),59 (YLQNEVFGL; listed as Homo sapiens) [compound 59]
14,+++ (>50 = +++),60 (SLGNFKDDLL; listed as Homo sapiens) [compound 60]
15,++++ (>75% = ++++),61 (FVAGYIAGV; listed as Homo sapiens) [compound 61]
16,++++ (>75% = ++++),62 (ILSSACYTV; listed as Homo sapiens) [compound 62]

row,"Peptide exchange (MHC class I binding score, peptide exchange yield)",Substance
1,++++ (>75% = ++++),63 (ALMDEINFMKM; listed as Homo sapiens) [compound 63]
2,+++ (>50 = +++),64 (KILESLFVSL; listed as Homo sapiens) [compound 64]
3,++++ (>75% = ++++),65 (ALWGFFPVLL; listed as Homo sapiens) [compound 65]
4,++++ (>75% = ++++),66 (TLLSEIAEL; listed as Homo sapiens) [compound 66]
5,++++ (>75% = ++++),67 (AQLNLIWQL; listed as Homo sapiens) [compound 67]
6,++ (>20% = ++),68 (KILEMDDPRA; listed as Homo sapiens) [compound 68]
7,++++ (>75% = ++++),69 (YVMESMTYL; listed as Homo sapiens) [compound 69]
8,++++ (>75% = ++++),70 (FLFPAFLTA; listed as Homo sapiens) [compound 70]
9,++++ (>75% = ++++),71 (SLFPYVVLI; listed as Homo sapiens) [compound 71]
10,++++ (>75% = ++++),72 (SLDGNPLAV; listed as Homo sapiens) [compound 72]
11,+++ (>50 = +++),73 (YIDPYKLLPL; listed as Homo sapiens) [compound 73]
12,+++ (>50 = +++),74 (SLTSFLISL; listed as Homo sapiens) [compound 74]
13,++++ (>75% = ++++),75 (ALASAPTSV; listed as Homo sapiens) [compound 75]
14,++++ (>75% = ++++),76 (ILFDEVLTFA; listed as Homo sapiens) [compound 76]
15,++ (>20% = ++),77 (SLRAFLMPI; listed as Homo sapiens) [compound 77]
16,+++ (>50 = +++),78 (VLYGDVEEL; listed as Homo sapiens) [compound 78]

# Source: US10688131B2, “Peptides and scaffolds for use in immunotherapy against head and neck squamous cell carcinoma and other cancers” (Immatics Biotechnologies GmbH, priority 2016, dated 2020)
